Data reported in patent publication US5864018.
One block for each substance: values may come before it.

What was measured:
[1] = target: human recombinant soluble RAGE/flag fusion protein (human); assay: excess lactoferrin against 125I-AGE-BSA binding to immobilized RAGE, Exp. 2; the filing leaves open whether lactoferrin acts through RAGE or AGE
[2] = target: human recombinant soluble RAGE/flag fusion protein (human); assay: excess native BSA against 125I-AGE-BSA binding to immobilized RAGE, Exp. 2
[3] = target: human recombinant soluble RAGE/flag fusion protein (human); assay: excess native BSA against 125I-AGE-BSA binding to immobilized RAGE, Exp. 3
[4] = target: AGE-BSA (bovine) (UniProt P02769); assay: excess free RAGE/DCC chimera against 125I-AGE-BSA binding to immobilized RAGE, Exp. 1

% Binding [1]: 50%
Substance: lactoferrin (ligand)

% Binding [2]: > 100% | % Binding [3]: > 100%
Substance: native BSA (from UniProt P02769)

% Binding [4]: 40%
Substance: recombinant soluble RAGE/DCC chimeric protein (receptor)
